The values that follow come from publication PMC9127186, “Molecular Basis Underlying Hepatobiliary and Renal Excretion of Phenolic Acids of Salvia miltiorrhiza Roots (Danshen)” (Frontiers in Pharmacology, 2022).

For series [1], the target named is T1, human BCRP (Homo sapiens, UniProt Q9UNQ0).
T1 sequence (Q9UNQ0 1-655): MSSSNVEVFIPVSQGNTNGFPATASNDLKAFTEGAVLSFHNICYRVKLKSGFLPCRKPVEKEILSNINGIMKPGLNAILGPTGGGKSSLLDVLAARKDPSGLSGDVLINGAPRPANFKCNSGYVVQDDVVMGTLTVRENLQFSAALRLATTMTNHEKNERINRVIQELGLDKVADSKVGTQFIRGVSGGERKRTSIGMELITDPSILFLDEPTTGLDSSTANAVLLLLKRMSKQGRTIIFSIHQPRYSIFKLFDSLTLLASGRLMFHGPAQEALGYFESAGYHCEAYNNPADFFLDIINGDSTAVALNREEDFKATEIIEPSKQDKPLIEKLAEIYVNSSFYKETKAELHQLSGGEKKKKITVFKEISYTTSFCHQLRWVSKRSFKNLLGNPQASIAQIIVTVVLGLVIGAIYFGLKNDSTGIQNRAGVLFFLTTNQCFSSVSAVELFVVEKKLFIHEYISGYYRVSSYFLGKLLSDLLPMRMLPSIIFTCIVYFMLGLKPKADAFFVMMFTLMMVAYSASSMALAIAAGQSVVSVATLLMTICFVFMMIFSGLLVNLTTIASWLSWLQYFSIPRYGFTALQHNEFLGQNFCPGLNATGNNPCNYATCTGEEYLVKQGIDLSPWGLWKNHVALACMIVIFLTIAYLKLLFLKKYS
The series is described as follows: Vesicular transport assay, inside-out membrane vesicles expressing human BCRP. To be noted: positive substrate 20 μM, 10 min; human BCRP. Here is the method: (§1) Inside-out membrane vesicles (5 mg protein/mL), prepared from insect cells expressing human multidrug resistance-associated protein (MRP) 2, MRP3, MRP4, breast cancer resistance protein (BCRP), bile salt export pump (BSEP), and multidrug resistance protein (MDR) one and rat Mrp2, Mrp4, Bcrp, and Bsep, and vesicles (5 mg protein/mL; prepared from the insect cells expressing no ABC transporter; serving as negative control) were obtained from Genomembrane (Kanazawa, Japan).
(§2) The test Danshen compounds at 100 µM final concentration were separately incubated with the membrane vesicles for 10 min. Buffer C (50 mM MOPS-tris, 70 mM KCl, 7.5 mM MgCl2, pH 7.0) was used for preincubation and incubation, while buffer D (40 mM MOPS-tris, 70 mM KCl, pH 7.0) was used for vesicle washing. The transport rate (pmol/mg protein/min) of the test Danshen compound was calculated using Equation (2): Transport=(CV×VV)/T/WV (2) where C V, V V, T, and W V represent concentration of the compound in vesicular lysates supernatant (μM), volume of the lysates (μL), incubation time (10 min), and amount of vesicle protein amount per well (0.05 mg), respectively. Differential transport of the test Danshen compound between ATP-containing vesicles and AMP-containing vesicles was defined as net transport ratio (TransportATP/TransportAMP ratio). […] All the incubation samples were analyzed by liquid chromatography/mass spectrometry.

Series [2] has as its target T2, rat Bcrp (Rattus norvegicus, UniProt Q80W57).
T2 sequence (Q80W57 1-657): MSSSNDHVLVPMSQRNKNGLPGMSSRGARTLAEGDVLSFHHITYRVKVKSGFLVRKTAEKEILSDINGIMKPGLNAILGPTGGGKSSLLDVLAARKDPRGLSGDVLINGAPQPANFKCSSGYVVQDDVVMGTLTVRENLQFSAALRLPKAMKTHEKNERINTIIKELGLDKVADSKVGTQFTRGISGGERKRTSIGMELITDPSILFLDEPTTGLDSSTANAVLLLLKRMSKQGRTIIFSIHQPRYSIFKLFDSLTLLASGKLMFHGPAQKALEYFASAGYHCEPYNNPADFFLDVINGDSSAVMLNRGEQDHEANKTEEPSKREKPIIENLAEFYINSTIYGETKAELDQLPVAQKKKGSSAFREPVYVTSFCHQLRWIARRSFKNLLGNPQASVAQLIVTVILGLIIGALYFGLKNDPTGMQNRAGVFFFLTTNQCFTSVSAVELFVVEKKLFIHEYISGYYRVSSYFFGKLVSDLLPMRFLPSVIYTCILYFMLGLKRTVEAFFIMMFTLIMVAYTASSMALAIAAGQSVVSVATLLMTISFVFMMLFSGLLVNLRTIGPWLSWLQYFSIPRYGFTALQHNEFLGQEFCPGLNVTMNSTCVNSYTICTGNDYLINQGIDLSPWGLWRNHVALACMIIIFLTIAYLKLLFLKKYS
Nature of the series: Vesicular transport assay, inside-out membrane vesicles expressing rat Bcrp. To be noted: positive substrate 20 μM, 10 min; rat Bcrp. Here is the method: as §1, §2

Substrate in series [3]: O=C(/C=C/c1ccc(O)c(O)c1)O[C@H](Cc1ccc(O)c(O)c1)C(=O)O
The series is described as follows: cells, lysate or membranes named. Conditions: 5 min incubation, concentrations in Table 1, 37.0 °C.

Substrate in series [4]: O=C(O)Cc1c(/C=C/C(=O)OC(Cc2ccc(O)c(O)c2)C(=O)O)ccc(O)c1O
Nature of the series: cells, lysate or membranes named. To be noted: 5 min incubation, concentrations in Table 1, 37.0 °C.

Substrate in series [5]: O=C(O)c1ccc(O)c(O)c1
Nature of the series: cells, lysate or membranes named. To be noted: 5 min incubation, concentrations in Table 1, 37.0 °C.

The mark [6] stands for this setting: other: human hepatic sinusoidal uptake OAT2 (also renal basolateral).
[7] abbreviates: other: rat renal basolateral uptake Oat1.
Setting [8] is: other: rat renal basolateral uptake Oat3.
The mark [9] stands for this setting: other: rat hepatic sinusoidal uptake Oat2 (also renal apical).
[10] abbreviates: other: human renal basolateral uptake OAT1.

The Vmax is the top rate of the reaction or transport when substrate is in excess.

On to `CN(Cc1cnc2nc(N)nc(N)c2n1)c1ccc(C(=O)N[C@@H](CCC(=O)O)C(=O)O)cc1` [MTX, methotrexate, reference compound], for which the “TransportATP/TransportAMP ratio, positive substrate” value is 4.45 ± 0.67 (MTX) in series [1] and 20.5 ± 3.2 (MTX) in series [2].

B1: human OAT2 (Homo sapiens) (protein)
chain: MGFEELLEQVGGFGPFQLRNVALLALPRVLLPLHFLLPIFLAAVPAHRCALPGAPANFSHQDVWLEAHLPREPDGTLSSCLRFAYPQALPNTTLGEERQSRGELEDEPATVPCSQGWEYDHSEFSSTIATEWDLVCEQKGLNRAASTFFFAGVLVGAVAFGYLSDRFGRRRLLLVAYVSTLVLGLASAASVSYVMFAITRTLTGSALAGFTIIVMPLELEWLDVEHRTVAGVLSSTFWTGGVMLLALVGYLIRDWRWLLLAVTLPCAPGILSLWWVPESARWLLTQGHVKEAHRYLLHCARLNGRPVCEDSFSQEAVSKVAAGERVVRRPSYLDLFRTPRLRHISLCCVVVWFGVNFSYYGLSLDVSGLGLNVYQTQLLFGAVELPSKLLVYLSVRYAGRRLTQAGTLLGTALAFGTRLLVSSDMKSWSTVLAVMGKAFSEAAFTTAYLFTSELYPTVLRQTGMGLTALVGRLGGSLAPLAALLDGVWLSLPKLTYGGIALLAAGTALLLPETRQAQLPETIQDVERKSAPTSLQEEEMPMKQVQN
Consider B1, for which the maximal velocity (Vmax) is 0.000927 µmol/min/mg in series [3] (setting [6]), 0.00269 ± 0.000114 µmol/min/mg in series [4] (setting [6]) and 0.00382 ± 0.000177 µmol/min/mg in series [5] (setting [6]). The Vmax/Km in series [3] (setting [6]) is 19.1 µL/min/mg; in series [4] (setting [6]) it was 24.3 µL/min/mg.

B2: rat Oat1 (Rattus norvegicus) (protein)
chain: MAFNDLLKQVGGVGRFQLIQVTMVVAPLLLMASHNTLQNFTAAIPPHHCRPPANANLSKDGGLEAWLPLDKQGQPESCLRFTSPQWGPPFYNGTEANGTRVTEPCIDGWVYDNSTFPSTIVTEWNLVCSHRAFRQLAQSLYMVGVLLGAMVFGYLADRLGRRKVLILNYLQTAVSGTCAAYAPNYTVYCVFRLLSGMSLASIAINCMTLNVEWMPIHTRAYVGTLIGYVYSLGQFLLAGIAYAVPHWRHLQLVVSVPFFIAFIYSWFFIESARWYSSSGRLDLTLRALQRVARINGKQEEGAKLSIEVLRTSLQKELTLSKGQASAMELLRCPTLRHLFLCLSMLWFATSFAYYGLVMDLQGFGVSMYLIQVIFGAVDLPAKFVCFLVINSMGRRPAQMASLLLAGICILVNGIIPKSHTIIRTSLAVLGKGCLASSFNCIFLYTGELYPTVIRQTGLGMGSTMARVGSIVSPLVSMTAEFYPSMPLFIFGAVPVVASAVTALLPETLGQPLPDTVQDLKSRSRGKQNQQQQEQQKQMMPLQASTQEKNGL
B2: the Vmax in series [3] (setting [7]) came out at 0.000206 µmol/min/mg; in series [4] (setting [7]), 0.000115 µmol/min/mg; in series [5] (setting [7]), 0.000446 µmol/min/mg. Further, the Vmax/Km in series [3] (setting [7]) stood at 3.47 µL/min/mg; in series [4] (setting [7]) it was 4.72 µL/min/mg.

B3: rat Oat3 (Rattus norvegicus) (protein)
chain: MTFSEILDRVGSMGPFQYLHVTLLALPVLGIANHNLLQIFTATTPVHHCRPPPNASIGPWVLPLDPNGKPEKCLRFVHLPNASLPNDTQRATEPCLDGWIYNSTRDTIVIEWDLVCSSNKLKEMAQSIFMAGILVGGPVIGELSDRFGRKPILTWSYLMLAASGSGAAFSPSLPVYMIFRFLCGCSISGISLSTVILNVEWVPTSMRAISSTSIGYCYTIGQFILSGLAYAIPQWRWLQLTSSAPFFIFSLLSWWVPESIRWLVLSGKYSKALKTLQRVATFNGKKEEGKKLTIEELKFNLQKDITSAKVKYGLSDLFRVSILRRVTFCLSLAWFSTGFAYYSLAMGVEEFGVNIYILQIIFGGVDIPAKFITILSLSYLGRRITQSFLLLLAGGAILALIFVPSEMQLLRTALAVFGKGCLSGSFSCLFLYTSELYPTVLRQTGMGISNVWARVGSMIAPLVKITGELQPFIPNVIFGTTALLGGSAAFFLLETLNRPLPETIEDIQNWHKQVQKTKQESEAEKASQIIPLKTGG
Regarding B3, the Vmax in series [3] (setting [8]) was 3.58e-06 µmol/min/mg; in series [5] (setting [8]), 6.68e-05 µmol/min/mg. In addition, in series [3] (setting [8]), the Vmax/Km is 0.15 µL/min/mg.

B4: rat Oat2 (Rattus norvegicus) (protein)
chain: MGFEDLLDKVGGFGPFQLRNLVLMALPRMLLPMHFLLPVFMAAVPAHHCALPGAPANLSHQDLWLEAHLPRETDGSFSSCLRFAYPQTVPNVTLGTEVSNSGEPEGEPLTVPCSQGWEYDRSEFSSTIATEWDLVCQQRGLNKITSTCFFIGVLVGAVVYGYLSDRFGRRRLLLVAYVSSLVLGLMSAASINYIMFVVTRTLTGSALAGFTIIVLPLELEWLDVEHRTVAGVISTVFWSGGVLLLALVGYLIRSWRWLLLAATLPCVPGIISIWWVPESARWLLTQGRVEEAKKYLLSCAKLNGRPVGEGSLSQEALNNVVTMERALQRPSYLDLFRTSQLRHISLCCMMVWFGVNFSYYGLTLDVSGLGLNVYQTQLLFGAVELPSKIMVYFLVRRLGRRLTEAGMLLGAALTFGTSLLVSLETKSWITALVVVGKAFSEAAFTTAYLFTSELYPTVLRQTGLGLTALMGRLGASLAPLAALLDGVWLLLPKVAYGGIALVAACTALLLPETKKAQLPETIQDVERKSTQEEDV
In the case of B4, the Vmax in series [3] (setting [9]) stood at 0.00062 µmol/min/mg; in series [4] (setting [9]), 0.000164 µmol/min/mg; in series [5] (setting [9]), 0.00118 ± 1.9e-05 µmol/min/mg. Moreover, the Vmax/Km in series [3] (setting [9]) is 5.2 µL/min/mg; in series [4] (setting [9]) it was 2.73 µL/min/mg.

B5: human OAT1 (Homo sapiens) (protein)
chain: MAFNDLLQQVGGVGRFQQIQVTLVVLPLLLMASHNTLQNFTAAIPTHHCRPPADANLSKNGGLEVWLPRDRQGQPESCLRFTSPQWGLPFLNGTEANGTGATEPCTDGWIYDNSTFPSTIVTEWDLVCSHRALRQLAQSLYMVGVLLGAMVFGYLADRLGRRKVLILNYLQTAVSGTCAAFAPNFPIYCAFRLLSGMALAGISLNCMTLNVEWMPIHTRACVGTLIGYVYSLGQFLLAGVAYAVPHWRHLQLLVSAPFFAFFIYSWFFIESARWHSSSGRLDLTLRALQRVARINGKREEGAKLSMEVLRASLQKELTMGKGQASAMELLRCPTLRHLFLCLSMLWFATSFAYYGLVMDLQGFGVSIYLIQVIFGAVDLPAKLVGFLVINSLGRRPAQMAALLLAGICILLNGVIPQDQSIVRTSLAVLGKGCLAASFNCIFLYTGELYPTMIRQTGMGMGSTMARVGSIVSPLVSMTAELYPSMPLFIYGAVPVAASAVTVLLPETLGQPLPDTVQDLESRWAPTQKEAGIYPRKGKQTRQQQEHQKYMVPLQASAQEKNGL
B5: the Vmax in series [3] (setting [10]) is 0.000181 µmol/min/mg; in series [4] (setting [10]) it was 3.76e-05 µmol/min/mg; in series [5] (setting [10]), 0.000242 µmol/min/mg. For the same molecule, the Vmax/Km turned out to be 2.55 µL/min/mg in series [3] (setting [10]) and 2.08 µL/min/mg in series [4] (setting [10]).
